Assays:
[1] = target: T1, recombinant His-tagged NRF2, full length (UniProt Q16236 1-605); assay: MST
T1 sequence: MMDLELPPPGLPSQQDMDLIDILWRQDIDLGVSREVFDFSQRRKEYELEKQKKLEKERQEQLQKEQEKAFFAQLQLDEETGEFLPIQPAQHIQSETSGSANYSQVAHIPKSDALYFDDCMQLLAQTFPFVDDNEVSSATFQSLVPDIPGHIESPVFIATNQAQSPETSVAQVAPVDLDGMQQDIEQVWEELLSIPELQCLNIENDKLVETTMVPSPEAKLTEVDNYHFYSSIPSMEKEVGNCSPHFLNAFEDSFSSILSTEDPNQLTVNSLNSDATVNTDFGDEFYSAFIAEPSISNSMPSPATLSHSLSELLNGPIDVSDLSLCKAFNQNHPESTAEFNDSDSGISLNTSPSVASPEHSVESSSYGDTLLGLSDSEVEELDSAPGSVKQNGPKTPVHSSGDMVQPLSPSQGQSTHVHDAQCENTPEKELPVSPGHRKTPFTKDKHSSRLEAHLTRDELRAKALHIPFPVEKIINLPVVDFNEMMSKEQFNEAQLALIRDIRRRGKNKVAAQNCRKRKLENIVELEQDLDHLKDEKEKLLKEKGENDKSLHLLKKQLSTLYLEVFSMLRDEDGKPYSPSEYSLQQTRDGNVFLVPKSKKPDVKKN

[2] = target: T2, recombinant His-Tag NRF2 truncation mutant Δ205-400 amino acids (Neh6/7 domains deleted) (UniProt Q16236 1-605, Δ205-400); assay: pull-down
T2 sequence: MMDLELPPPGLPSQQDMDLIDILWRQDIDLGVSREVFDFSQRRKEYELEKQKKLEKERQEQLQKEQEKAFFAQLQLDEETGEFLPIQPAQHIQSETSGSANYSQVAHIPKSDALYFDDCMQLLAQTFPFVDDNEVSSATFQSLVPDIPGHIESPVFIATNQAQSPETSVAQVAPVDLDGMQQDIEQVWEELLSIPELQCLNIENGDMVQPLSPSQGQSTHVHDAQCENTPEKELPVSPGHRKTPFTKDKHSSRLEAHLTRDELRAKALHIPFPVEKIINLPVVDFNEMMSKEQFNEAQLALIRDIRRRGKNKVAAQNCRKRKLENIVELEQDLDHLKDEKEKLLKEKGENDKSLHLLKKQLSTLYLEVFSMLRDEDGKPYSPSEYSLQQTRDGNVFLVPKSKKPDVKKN

Kd [1]: 859 ± 70.1 nM
binding result [2]: binds
B1: recombinant αB-crystallin (natural protein)
chain: MDIAIHHPWIRRPFFPFHSPSRLFDQFFGEHLLESDLFPTSTSLSPFYLRPPSFLRAPSWFDTGLSEMRLEKDRFSVNLDVKHFSPEELKVKVLGDVIEVHGKHEERQDEHGFISREFHRKYRIPADVDPLTITSSLSSDGVLTVNGPRKQVSGPERTIPITREEKPAVTAAPKK

— publication doi:10.1101/2023.10.26.564194 (bioRxiv, 2023)
